Experimental data reported in patent EP0662093B1.

Assays:
[1] = molecular target: HIV-1 RF gp120 (HIV-1 strain RF) (UniProt P04579); test: cell-based or functional assay
[2] = molecular target: native HIV-1IIIB gp120 (HIV-1 strain IIIB) (UniProt P04578); test: cell-based or functional assay
[3] = molecular target: native HIV-1MN gp120 (HIV-1 strain MN) (UniProt P05877); test: cell-based or functional assay
[4] = molecular target: peptide aa 302-316 of HIV-1MN gp120 (HIV-1 strain MN); test: ELISA on coated peptide (250 ng/well); 19.0ng antibody
[5] = molecular target: peptide aa 312-326 of HIV-1MN gp120 (HIV-1 strain MN); test: as above
[6] = molecular target: peptide aa 322-336 of HIV-1MN gp120 (HIV-1 strain MN); test: as above
[7] = molecular target: peptide aa 302-316 of HIV-1MN gp120 (HIV-1 strain MN); test: ELISA on coated peptide (250 ng/well); 4.75ng antibody
[8] = molecular target: peptide aa 312-326 of HIV-1MN gp120 (HIV-1 strain MN); test: as above
[9] = molecular target: peptide aa 322-336 of HIV-1MN gp120 (HIV-1 strain MN); test: as above
[10] = molecular target: peptide aa 302-316 of HIV-1MN gp120 (HIV-1 strain MN); test: ELISA on coated peptide (250 ng/well); 9.50ng antibody
[11] = molecular target: peptide aa 312-326 of HIV-1MN gp120 (HIV-1 strain MN); test: as above
[12] = molecular target: peptide aa 322-336 of HIV-1MN gp120 (HIV-1 strain MN); test: as above
[13] = molecular target: native HIV-1MN gp120 (HIV-1 strain MN) (UniProt P05877); test: radioimmunoassay of hybridoma supernatant on HIV-1MN-infected against uninfected H9 cells
[14] = molecular target: native HIV-1MN gp120 (HIV-1 strain MN) (UniProt P05877); test: ELISA of hybridoma supernatant on membranes of HIV-1MN-infected against uninfected H9 cells
[15] = molecular target: peptide aa 302-316 of HIV-1MN gp120 (HIV-1 strain MN); test: ELISA on coated peptide (250 ng/well); 500ng MIgG
[16] = molecular target: peptide aa 312-326 of HIV-1MN gp120 (HIV-1 strain MN); test: ELISA on coated peptide (250 ng/well); 500ng MIgG
[17] = molecular target: peptide aa 322-336 of HIV-1MN gp120 (HIV-1 strain MN); test: ELISA on coated peptide (250 ng/well); 500ng MIgG

UniProt P04579, sequence (P04579 32-519 limits assumed): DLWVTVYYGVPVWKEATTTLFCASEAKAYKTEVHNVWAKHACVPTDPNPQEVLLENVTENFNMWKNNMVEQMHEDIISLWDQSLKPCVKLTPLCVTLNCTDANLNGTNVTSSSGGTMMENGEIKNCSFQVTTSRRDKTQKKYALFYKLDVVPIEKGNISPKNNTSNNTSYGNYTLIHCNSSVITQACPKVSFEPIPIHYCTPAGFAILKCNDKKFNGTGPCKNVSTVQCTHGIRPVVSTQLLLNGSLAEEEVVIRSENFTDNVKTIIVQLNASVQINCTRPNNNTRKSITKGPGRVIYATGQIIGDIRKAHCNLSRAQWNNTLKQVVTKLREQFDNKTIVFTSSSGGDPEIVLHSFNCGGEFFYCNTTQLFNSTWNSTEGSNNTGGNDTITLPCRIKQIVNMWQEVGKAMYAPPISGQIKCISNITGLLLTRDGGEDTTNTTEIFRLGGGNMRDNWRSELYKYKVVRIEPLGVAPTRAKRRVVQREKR

monoclonal antibody NM-01
ID50, inhibition of live RF virus, RT assay [1]: 0.05 µg/mL
ID50, inhibition of syncytium formation by RF-infected cells [1]: 4 µg/mL
percent inhibition of syncytium formation by RF-infected cells at 25 µg antibody [1]: 59%
ID50, inhibition of syncytium formation by IIIB-infected H9 cells with C8166 cells [2]: 3 µg/mL
ID50, neutralization of live IIIB isolate, MT-2 assay [2]: 0.1 µg/mL
ID50, neutralization of live IIIB virus, RT assay [2]: 0.1 µg/mL
ID50, neutralization of live IIIB virus, RT assay (run with F58/H3 and P4/D10) [2]: 0.1 µg/mL
percent inhibition of syncytium formation by IIIB-infected cells at 25 µg antibody [2]: 85%
50% inhibition of viral infectivity (ID50), live MN virus, RT assay [3]: < 1 µg/mL
50% inhibition of viral infectivity (ID50), live MN virus, RT assay (run with F58/H3 and P4/D10) [3]: < 1 µg/mL
ID50, inhibition of syncytium formation by MN-infected H9 cells with C8166 cells [3]: 2 µg/mL
ID50, neutralization of live MN isolate, MT-2 assay [3]: 2 µg/mL
percent inhibition of syncytium formation by MN-infected cells at 25 µg antibody [3]: 85%
Optical density at 650nm [4]: 0.024 OD 650nm
Optical density at 650nm [5]: 1.14 OD 650nm
Optical density at 650nm [6]: 0.03 OD 650nm
Optical density at 650nm [7]: 0.024 OD 650nm
Optical density at 650nm [8]: 0.781 OD 650nm
Optical density at 650nm [9]: 0.03 OD 650nm
Optical density at 650nm [10]: 0.024 OD 650nm
Optical density at 650nm [11]: 0.827 OD 650nm
Optical density at 650nm [12]: 0.028 OD 650nm
Ratio cpm inf/cpm uninf (RIA) [13]: 9.81
ratio infected/uninfected (ELISA, Run 1) [14]: 5.76

mouse IgG (antibody)
Optical density at 650nm [15]: 0.049 OD 650nm
Optical density at 650nm [16]: 0.043 OD 650nm
Optical density at 650nm [17]: 0.042 OD 650nm
